Assay: soluble on expression in E. coli; label from the status in PepcDB or PDB records

Sequence	soluble on expression in E. coli
MSLWYNRAMKHFDTIVIGGGPAGMMATISSSFYGQKTLLIEKNRKLGKKLAGTGGGRCNVTNNGSLDNLLAGIPGNGRFLYSVFSQFDNHDIINFFTENGVKLKVEDHGRVFPASDKSRTIIEALEKKITELGGQVATQIEIVSVKKVDDQFVLKSADQTFTCEKLIVTTGGKSYPSTGSTGFGHEIARHFKHTITDLEAAESPLLTDFPHKALQGISLDDVTLSYGKHVITHDLLFTHFGLSGPAALRMSSFVKGGEVLSLDVLPQLSEKDLVTFLEENREKSLKNALKTLLPERLAEFFVQGYPEKVKQLTEKEREQLVQSIKELKIPVTGKMSLAKSFVTKGGVSLKEINPKTLESKLVPGLHFAGEVMDINAHTGGFNITSALCTGWVAGSLHYDEGHHHHHH	soluble
MPWIAKRRGHDADFFIMRIPRIYHPELLTSGTQISLCEDAANHIGRVLRMGPGQALQLFDGSNQVFDAEIISASKKSVEVQVMKGEIDDRESPLHIHLGQVMSRGEKMEFTIQKSIELGVSLITPLFSERCGVKLDSERLNKKRQQWQKIAIAACEQCGRNRVPEIRPPMALEAWCAEQDSGLKLNLHPRAHASINTLPLPVERVRLLIGPEGGLSADEIAMTARYQFTDILLGPRVLRTETTALTAITALQVRFGDLG	not soluble
MSTVKEAVDVEVPVHTAYNQWTQFEEFPHFMEGVEEVRQLDERHNHWTTQVSGVKREFDTEIVDQLPDERITWRTTTGDTNQKGTVRFQRLDDTHTRVELVMDVDPTGVAEKTGDMLGVIDRRVKGDMQRFKEYIEKRGGESGAWRGRIRPGELEHHHHHH	soluble
GGSGRPEIWIAQELRRIGDEFNAYYARRV	soluble
MRGSHHHHHHTDPALRAARLFTLSESKYYLMALDAGTGSIRAVIFDLEGNQIAVGQAEWRHLAVPDVPGSMEFDLNKNWQLACECMRQALHNAGIAPEYIAAVSACSMREGIVLYNNEGAPIWACANVDARAAREVSELKELHNNTFENEVYRATGQTLALSAIPRLLWLAHHRSDIYRQASTITMISDWLAYMLSGELAVDPSNAGTTGLLDLTTRDWKPALLDMAGLRADILSPVKETGTLLGVVSSQAAELCGLKAGTPVVVGGGDVQLGCLGLGVVRPAQTAVLGGTFWQQVVNLAAPVTDPEMNVRVNPHVIPGMVQAESISFFTGLTMRWFRDAFCAEEKLIAERLGIDTYTLLEEMASRVPPGSWGVMPIFSDRMRFKTWYHAAPSFINLSIDPDKCNKATLFRALEENAAIVSACNLQQIADFSNIHPSSLVFAGGGSKGKLWSQILADVSGLPVNIPVVKEATALGCAIAAGVGAGIFSSMAETGERLVRWERTHTPDPEKHELYQDSRDKWQAVYQDQLGLVDHGLTTSLWKAPGLGLCGR	soluble
MARPQSKKKQTQVARRPRRRGRWVPPSRLIAGRDFPEFLRQAVLLSGSLRQAARKLRVSYSTLRGWLGRRCEEPPEGERDLLAGHVAAIRTELDVAAEHLAIVRGQLDALERGDDG	not soluble
PDGPTQLRALNLTEGFAVLHWKPPQNPVDTYDIQVTAPGAPPLQAETPGSAVDYPLHDLVLHTNYTATVRGLRGPNLTSPASITFTTGLEAPRDLEAKEVTP	soluble
AHHHHHHGSDSIIVYVSIHHKNTEKVAKVIAEVLNARLVKPWEIKPEELLKYDLIGFGSGIYYWKHHRALFELINKLPKVEGKKAFIFSTAGLNIPFINHRKLRKVLREKGFEIVGEFSCRGWDTNGWLAEIGGLNKGHPNEKDLENARKFAENLKASI	soluble
MDMTYNMRNAMASSRNMEEPQYDMSTIDLTQNSMNTNYLMNGSVLTNAYNNDYIVNNRDKYTGDMISQLKIDQGIPTYSHTLPMNGTTLADTNDSLNIQGMMRTNMDTTGFDGYSHIMNYNNTQNTIQTNPITYRMEDYNNLNNDVMYINPTTGEKFSAEYVNNIPTNDSDNMLYSNNFKNNSINMNTLLNSHYNNLPYPMPIYESMNNPQMYMQHMNQKQTVNIPLQHGEKKSAARNISTVNKRRIKTKKFFPCC	not soluble
